{
  "source": "paper PMC9282251",
  "about": "(Proceedings of the National Academy of Sciences of the …, 2022)",
  "proteins": {"B1": {"name": "K401-clip labeled with Alexa-647 (domain or fragment)", "chain": "not shown", "modifications": "Alexa-647 label (labeling efficiencies of 15% monomer and 58% monomer in two preparations)"}},
  "molecular_target": "the molecule itself",
  "assay": "single-molecule photobleaching and fluorescence intensity analysis",
  "data": [
    {"protein": "B1", "values": [
      {"measurement": "stoichiometry N", "value": 2}
    ]}
  ]
}
